Reference: patent US20260273045A1

Biological target: OVA peptide SIINFEKL bound to H-2Kb MHC I on mouse phDC / BMDC (mouse)
Assay: cell-based or functional assay

- Proliferation of the OT1 CD8 T cells (CFSE dilution), coculture with titrated numbers of OVA mRNA LNP-transduced phDC: < 47%
Sequence: T cell receptor of OVA-specific OT1 CD8 T cells (C57Bl/6-Tg (TcraTcrb)1100Mjb/J mice)
